From patent publication US20100279930A1 (published 2010)

Target: human Y4 receptor (human, UniProt P50391 1-375)
Assay: 125I-PP displacement

Chain of human Y4 receptor (P50391 whole entry): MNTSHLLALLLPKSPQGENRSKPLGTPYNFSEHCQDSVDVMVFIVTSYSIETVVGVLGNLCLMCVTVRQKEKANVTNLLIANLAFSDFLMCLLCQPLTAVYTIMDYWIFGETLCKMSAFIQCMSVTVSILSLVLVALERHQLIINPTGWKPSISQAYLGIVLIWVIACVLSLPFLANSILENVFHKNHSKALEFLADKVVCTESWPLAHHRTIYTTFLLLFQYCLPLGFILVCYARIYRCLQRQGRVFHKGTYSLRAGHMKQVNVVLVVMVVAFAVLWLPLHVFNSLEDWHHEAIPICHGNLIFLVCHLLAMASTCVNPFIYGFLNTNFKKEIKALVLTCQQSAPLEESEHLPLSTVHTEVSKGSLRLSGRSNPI

| Binder | IC50 [nM] |
| --- | --- |
| PAPLEPTYPGDNATPEQKAKYYSELRRYINKLTRPRY [4060280] | 0.064 |
| GAPLEPEYPGDNATPEQLARYAAALRRYINKLTRPRY [4060356] | 0.091 |
| GAPLEPEYPGDNATPEQKARYAAALRRYINKLTRPRY [4060309] | 0.046 |
| PAPLEPKYPGDNATPEQLAKYAAELRRYIDKLTRPRY [4060893] | 0.11 |
| PAPLEPEYPGDNATPEQKAKYAAALRRYINRLTRPRY [4060278] | 0.062 |
| GAPLEPEAPGDNATPEQMAKYYSELRRYIDKLTRPRY [4060693] | 0.172 |
| PAPLEPTYPGDNATPEQLAKYYSELRRYINKLTRPRF [4060284] | 0.055 |
| PAPLEPKYPGDNATPEQMAKYYSELRRYIDHLTRPRY [4060602] | 0.173 |
| GAPLEPVYPGDNATPEQKAKYAAELRRYIDHLTRPRY [4061086] | 0.213 |
| GAPLEPVAPGDNATPEQMARYYSELRRYIDKLTRPRY [4060690] | 0.171 |
| PAPLEPKYPGDNATPEQLAKYYSELRRYIDKLTRPRY [4060605] | 0.14 |
| GAPLEPEYPGDNATPEEMARYAAALRRYINKLTRPRY [4060359] | 0.099 |
| YAPLEPEYPGDDATPQQKARYAAELRRYIDKLTRPRY [4060682] | 0.131 |
| GAPLEPTYPGDNATPEQLAKYYSELRRYINKLTRPRF [4060283] | 0.073 |
| GAPLEPVYPGDNATPEQKAKYAAELRRYIDKLTRPRY [4061084] | 0.174 |
| PAPLEPVYPGDNATPEQKAKYAAELRRYIDRLTRPRY [4061091] | 0.107 |
| GAPLEPVYPGDNATPEQKAKYAAELRRYIDRLTRPRY [4061090] | 0.1 |
| GAPLEPEYPGDNATPEQMARYAAALRRYINHLTRPRY [4060358] | 0.08 |
| PAPLEPEYPGDNATPEQKAKYAAALRRYINHLTRPRY [4060275] | 0.106 |
| PAPLEPKYPGDNATPEEMAKYYSELRRYIDKLTRPRY [4060894] | 0.126 |
| GAPLEPVYPGDNATPEQLAKYAAELRRYIDKLTRPRY [4060897] | 0.137 |
| YAPLEPTYPGDNATPEQKAKYAAELRRYIDKLTRPRY [4061083] | 0.124 |
| PAPLEPTYPGDNATPEQLAKYYSELRRYINRLTRPRY [4060277] | 0.076 |
| PAPLEPVYPGDNATPEQKAKYAAELRRYIDKLTRPRY [4061085] | 0.159 |
